What was measured:
[1] = molecular target: T1, SARS-CoV-2 prototype RBD with human IgG Fc-tag (SARS-CoV-2, UniProt P0DTC2); assay: cell-based or functional assay
[2] = molecular target: T1, SARS-CoV-2 prototype RBD with human IgG …; assay: SPR

Row | Binder | IC50 of neutralization of live SARS-CoV-2 in Vero cells (blocks RBD with hACE2) [1] [nM] | IC50 of neutralization of live SARS-CoV-2 in Vero cells (blocks S with ACE2) [1] [nM] | Kd [2] [nM]
1 | nanobody R14 (VHH) VHH: QVQLQESGGGLVQPGGSLRLSCAVSGFTLDYYAIGWFRQAPGKEREGVSCISSSDGSTSYADSVKGRFTISRDNAKNTVYLQMNSLKPEDTALYYCAATPATYYSGRYYYQCPAGGMDYWGQGTQVTVSS | 1.3 | – | –
2 | nanobody S43 (VHH) VHH: QVQLQESGGGLVQPGGSLRLTCAPSGFTLDYYAIGWFRQAPGKEREGVSCISSNNSTYYADSVKGRFTISRDNAKNTVYLQMNSLKPEDTAVYYCAAEPDYSGVYYYTCGWTDFGSWGQGTQVTVSS | – | 40.7 | 0.18
